± gives the standard deviation of the averaged measurements.
Tested on: ATP
Assay: switch fluorescence ratio, 500 uM ATP over buffer (Cy3 cluster intensity, sum of 5 cycles each) (fold (ratio)); higher = stronger signal-on switching upon ATP binding; sequences stand for … in TCGTCGGCAGCGTCAGATGTGTATAAGAGACAGTTTTTTTTTTTTTTTTTTTTTTTTT…TC
Conditions: aptamer strand: ATP DNA aptamer (quencher-CACCTGGGGGAGTATTGCGGAGGAAGG + anchor), 100 nM annealed; ATP concentration: 500 uM
How it was run: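 Clusters carrying Cy3-labelled switching strands on a modified Illumina MiSeq flow-cell were annealed to 100 nM quencher-labelled ATP aptamer and imaged in selection buffer. They were imaged again after 15 min with 500 uM ATP at 22 °C, over five buffer/ATP cycles with NaOH stripping and re-annealing in between. For each cluster, the fluorescence ratio is the summed Cy3 intensity of the target cycles divided by that of the buffer cycles, averaged per switch-domain sequence. Clusters outside 100-1000 RFU were left out.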
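Also: ATP exposure 15 min at 22 °C before imaging.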

**Q.** Which switch fluorescence ratio does the source give for GGGGACAGGG here?
**A.** 1.01 ± 0.051

**Q.** Which switch fluorescence ratio does the source give for GGGGACAGGT here?
**A.** 1.03 ± 0.0057

**Q.** For GGGGACCGGG, which switch fluorescence ratio is on record?
**A.** 1.07 ± 0.094

**Q.** With GGGGACCTAT as the sequence, how does the switch fluorescence ratio read?
**A.** 1.02 ± 0.018

**Q.** Which switch fluorescence ratio does the source give for GGGGACTACT here?
**A.** 1 ± 0.025

**Q.** With GGGGACTGAT as the sequence, how does the switch fluorescence ratio read?
**A.** 0.995 ± 0.022

**Q.** How did the switch fluorescence ratio turn out when GGGGACTGGT was run?
**A.** 1 ± 0.043

**Q.** How did the switch fluorescence ratio turn out when GGGGACTTGC was run?
**A.** 0.9913 ± 0.0045

**Q.** For GGGGAGCAGC, which switch fluorescence ratio is on record?
**A.** 1.11 ± 0.22

**Q.** With GGGGAGCATT as the sequence, how does the switch fluorescence ratio read?
**A.** 1.04 ± 0.013

**Q.** For GGGGAGGGAT, which switch fluorescence ratio is on record?
**A.** 0.996 ± 0.017

**Q.** How did the switch fluorescence ratio turn out when GGGGAGGGCT was run?
**A.** 0.964 ± 0.033

**Q.** GGGGAGGGGC was tested. Which switch fluorescence ratio did it give?
**A.** 1.01 ± 0.065

**Q.** With GGGGAGGTCT as the sequence, how does the switch fluorescence ratio read?
**A.** 1.01 ± 0.03

**Q.** Which switch fluorescence ratio does the source give for GGGGAGGTTC here?
**A.** 1 ± 0.031

**Q.** GGGGAGTGTT was tested. Which switch fluorescence ratio did it give?
**A.** 0.998 ± 0.039

**Q.** GGGGAGTTAG was tested. Which switch fluorescence ratio did it give?
**A.** 1.01 ± 0.013

**Q.** For GGGGATAAGT, which switch fluorescence ratio is on record?
**A.** 1.04 ± 0.054

**Q.** With GGGGATACAG as the sequence, how does the switch fluorescence ratio read?
**A.** 0.995 ± 0.012

**Q.** With GGGGATATAT as the sequence, how does the switch fluorescence ratio read?
**A.** 1 ± 0.035

**Q.** GGGGATATTT was tested. Which switch fluorescence ratio did it give?
**A.** 1 ± 0.014

**Q.** For GGGGATCGCG, which switch fluorescence ratio is on record?
**A.** 0.986 ± 0.033

**Q.** For GGGGATGAGA, which switch fluorescence ratio is on record?
**A.** 0.986 ± 0.01

**Q.** For GGGGATGGTA, which switch fluorescence ratio is on record?
**A.** 0.978 ± 0.025

**Q.** For GGGGATGTAC, which switch fluorescence ratio is on record?
**A.** 1.07 ± 0.077

**Q.** With GGGGATGTAG as the sequence, how does the switch fluorescence ratio read?
**A.** 0.979 ± 0.026

**Q.** For GGGGATGTTA, which switch fluorescence ratio is on record?
**A.** 1.01 ± 0.026

**Q.** Which switch fluorescence ratio does the source give for GGGGATGTTT here?
**A.** 0.958 ± 0.039

**Q.** How did the switch fluorescence ratio turn out when GGGGATTGAG was run?
**A.** 0.973 ± 0.042

**Q.** How did the switch fluorescence ratio turn out when GGGGATTGTT was run?
**A.** 1 ± 0.033

**Q.** Which switch fluorescence ratio does the source give for GGGGATTTCA here?
**A.** 0.989 ± 0.024

**Q.** With GGGGATTTGT as the sequence, how does the switch fluorescence ratio read?
**A.** 0.994 ± 0.034

**Q.** GGGGCAAAGA was tested. Which switch fluorescence ratio did it give?
**A.** 1.02 ± 0.027

**Q.** Which switch fluorescence ratio does the source give for GGGGCAAGCG here?
**A.** 1.04 ± 0.028

**Q.** Which switch fluorescence ratio does the source give for GGGGCAGAAA here?
**A.** 1.26 ± 0.45

**Q.** For GGGGCAGGCG, which switch fluorescence ratio is on record?
**A.** 1.07 ± 0.35

**Q.** GGGGCATAGT was tested. Which switch fluorescence ratio did it give?
**A.** 0.991 ± 0.02

**Q.** How did the switch fluorescence ratio turn out when GGGGCATGGC was run?
**A.** 1.02 ± 0.028

**Q.** How did the switch fluorescence ratio turn out when GGGGCATTAT was run?
**A.** 1.06 ± 0.074

**Q.** Which switch fluorescence ratio does the source give for GGGGCCAATT here?
**A.** 1.01 ± 0.032

**Q.** How did the switch fluorescence ratio turn out when GGGGCCGGGA was run?
**A.** 1.12 ± 0.19

**Q.** With GGGGCCGGTC as the sequence, how does the switch fluorescence ratio read?
**A.** 1 ± 0.016

**Q.** For GGGGCGAGTC, which switch fluorescence ratio is on record?
**A.** 1.01 ± 0.1

**Q.** Which switch fluorescence ratio does the source give for GGGGCGGACG here?
**A.** 0.995 ± 0.047

**Q.** How did the switch fluorescence ratio turn out when GGGGCGGGCA was run?
**A.** 1.03 ± 0.043

**Q.** GGGGCGGGTG was tested. Which switch fluorescence ratio did it give?
**A.** 0.993 ± 0.039

**Q.** With GGGGCGGGTT as the sequence, how does the switch fluorescence ratio read?
**A.** 1.02 ± 0.04

**Q.** GGGGCGGTGC was tested. Which switch fluorescence ratio did it give?
**A.** 1.03 ± 0.023

**Q.** With GGGGCGGTGT as the sequence, how does the switch fluorescence ratio read?
**A.** 1.32 ± 0.54

**Q.** Which switch fluorescence ratio does the source give for GGGGCGTGTA here?
**A.** 0.977 ± 0.029

**Q.** How did the switch fluorescence ratio turn out when GGGGCTAGAG was run?
**A.** 1.4 ± 0.77

**Q.** Which switch fluorescence ratio does the source give for GGGGCTAGGG here?
**A.** 1 ± 0.032

**Q.** With GGGGCTCTAA as the sequence, how does the switch fluorescence ratio read?
**A.** 1.01 ± 0.038

**Q.** Which switch fluorescence ratio does the source give for GGGGCTGAGT here?
**A.** 0.954 ± 0.039

**Q.** Which switch fluorescence ratio does the source give for GGGGCTGCGG here?
**A.** 0.973 ± 0.052

**Q.** Which switch fluorescence ratio does the source give for GGGGCTGGGG here?
**A.** 1.01 ± 0.034

**Q.** Which switch fluorescence ratio does the source give for GGGGCTGGGT here?
**A.** 1.02 ± 0.031

**Q.** Which switch fluorescence ratio does the source give for GGGGCTGTCT here?
**A.** 1 ± 0.071

**Q.** For GGGGCTTGTG, which switch fluorescence ratio is on record?
**A.** 1.01 ± 0.028

**Q.** Which switch fluorescence ratio does the source give for GGGGCTTTTC here?
**A.** 1.01 ± 0.027

**Q.** For GGGGGAACGT, which switch fluorescence ratio is on record?
**A.** 1.05 ± 0.037

**Q.** For GGGGGAAGTA, which switch fluorescence ratio is on record?
**A.** 1.041 ± 0.0027

**Q.** For GGGGGAATTA, which switch fluorescence ratio is on record?
**A.** 1.01 ± 0.029

**Q.** How did the switch fluorescence ratio turn out when GGGGGACAGG was run?
**A.** 1.05 ± 0.072

**Q.** GGGGGACGGT was tested. Which switch fluorescence ratio did it give?
**A.** 1.02 ± 0.017

**Q.** Which switch fluorescence ratio does the source give for GGGGGAGAAA here?
**A.** 1.02 ± 0.033

**Q.** How did the switch fluorescence ratio turn out when GGGGGAGAAC was run?
**A.** 1.026 ± 0.0019

**Q.** How did the switch fluorescence ratio turn out when GGGGGAGAGG was run?
**A.** 0.99 ± 0.029

**Q.** With GGGGGAGCAG as the sequence, how does the switch fluorescence ratio read?
**A.** 0.9812 ± 0.0084

**Q.** Which switch fluorescence ratio does the source give for GGGGGAGCGT here?
**A.** 1 ± 0.03

**Q.** Which switch fluorescence ratio does the source give for GGGGGAGGGT here?
**A.** 0.997 ± 0.036

**Q.** Which switch fluorescence ratio does the source give for GGGGGAGTAC here?
**A.** 1.025 ± 0.0084

**Q.** For GGGGGAGTAG, which switch fluorescence ratio is on record?
**A.** 0.983 ± 0.016

**Q.** For GGGGGATACT, which switch fluorescence ratio is on record?
**A.** 1.04 ± 0.037

**Q.** How did the switch fluorescence ratio turn out when GGGGGATATT was run?
**A.** 1.01 ± 0.037

**Q.** For GGGGGATCGC, which switch fluorescence ratio is on record?
**A.** 1.01 ± 0.025

**Q.** With GGGGGATCGT as the sequence, how does the switch fluorescence ratio read?
**A.** 1.02 ± 0.035

**Q.** GGGGGATGAA was tested. Which switch fluorescence ratio did it give?
**A.** 0.991 ± 0.025

**Q.** Which switch fluorescence ratio does the source give for GGGGGATT here?
**A.** 0.996 ± 0.02

**Q.** GGGGGATTAG was tested. Which switch fluorescence ratio did it give?
**A.** 0.992 ± 0.022

**Q.** Which switch fluorescence ratio does the source give for GGGGGATTAT here?
**A.** 0.992 ± 0.044

**Q.** Which switch fluorescence ratio does the source give for GGGGGATTCT here?
**A.** 1.02 ± 0.011

**Q.** For GGGGGATTGG, which switch fluorescence ratio is on record?
**A.** 0.999 ± 0.032

**Q.** GGGGGCAGGT was tested. Which switch fluorescence ratio did it give?
**A.** 1.03 ± 0.039

**Q.** For GGGGGCATCT, which switch fluorescence ratio is on record?
**A.** 1 ± 0.019

**Q.** With GGGGGCCACG as the sequence, how does the switch fluorescence ratio read?
**A.** 0.984 ± 0.022

**Q.** With GGGGGCCCGT as the sequence, how does the switch fluorescence ratio read?
**A.** 1.46 ± 0.69

**Q.** With GGGGGCCCTC as the sequence, how does the switch fluorescence ratio read?
**A.** 0.985 ± 0.01

**Q.** GGGGGCCCTG was tested. Which switch fluorescence ratio did it give?
**A.** 0.98993 ± 0.0009

**Q.** GGGGGCGATT was tested. Which switch fluorescence ratio did it give?
**A.** 0.987 ± 0.017

**Q.** With GGGGGCGGCG as the sequence, how does the switch fluorescence ratio read?
**A.** 1 ± 0.051

**Q.** GGGGGCGTGG was tested. Which switch fluorescence ratio did it give?
**A.** 1 ± 0.043

**Q.** For GGGGGCGTTG, which switch fluorescence ratio is on record?
**A.** 1.01 ± 0.02

**Q.** For GGGGGCTTGA, which switch fluorescence ratio is on record?
**A.** 0.954 ± 0.022

**Q.** How did the switch fluorescence ratio turn out when GGGGGGAAAG was run?
**A.** 0.98 ± 0.029

**Q.** Which switch fluorescence ratio does the source give for GGGGGGAAGA here?
**A.** 0.994 ± 0.025

**Q.** For GGGGGGAATC, which switch fluorescence ratio is on record?
**A.** 1.01 ± 0.052

**Q.** For GGGGGGACAA, which switch fluorescence ratio is on record?
**A.** 1 ± 0.013

**Q.** Which switch fluorescence ratio does the source give for GGGGGGACCG here?
**A.** 0.987 ± 0.032

**Q.** Which switch fluorescence ratio does the source give for GGGGGGACGA here?
**A.** 1.01 ± 0.033
